Assay [1] has as its target T1, human 4-1BB (Sino Biological, Cat #10041-H08H) (human, UniProt Q07011 24-186).
T1 construct: Bought reagent coated on ELISA plates
Briefly: ELISA, protein coated. In general terms: ELISA stands for enzyme-linked immunosorbent assay.

Assay [2] concerns the target T2, human CD40 (Sino Biological, Cat #10774-H08H) (human, UniProt P25942 21-193).
T2 construct: Bought reagent coated on ELISA plates
The assay can be described thus: ELISA, protein coated.

Assay [3] has as its target T3, human OX40 (Sino Biological, Cat #10481-H08H) (human, UniProt P43489 29-216).
T3 construct: Bought reagent coated on ELISA plates
T3 sequence (looked up): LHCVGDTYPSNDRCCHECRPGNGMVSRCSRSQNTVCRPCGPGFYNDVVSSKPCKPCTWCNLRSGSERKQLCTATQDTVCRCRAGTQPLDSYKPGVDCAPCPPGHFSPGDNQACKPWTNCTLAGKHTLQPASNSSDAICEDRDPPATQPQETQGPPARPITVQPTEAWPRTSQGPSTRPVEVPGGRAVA
Briefly: ELISA, protein coated.

The target in assay [4] is T4, human GITR (Sino Biological, Cat #13643-H08H) (human, UniProt Q9Y5U5 26-161).
T4 construct: Bought reagent coated on ELISA plates
T4 sequence (looked up): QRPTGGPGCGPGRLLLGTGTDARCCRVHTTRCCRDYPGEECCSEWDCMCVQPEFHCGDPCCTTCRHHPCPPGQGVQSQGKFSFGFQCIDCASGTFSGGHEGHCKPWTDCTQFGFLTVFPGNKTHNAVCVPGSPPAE
The assay can be described thus: ELISA, protein coated.

The target in assay [5] is T5, human CD27 (Sino Biological, Cat #10039-H31H) (human, UniProt P26842 20-192).
T5 construct: Bought reagent coated on ELISA plates
T5 sequence (looked up): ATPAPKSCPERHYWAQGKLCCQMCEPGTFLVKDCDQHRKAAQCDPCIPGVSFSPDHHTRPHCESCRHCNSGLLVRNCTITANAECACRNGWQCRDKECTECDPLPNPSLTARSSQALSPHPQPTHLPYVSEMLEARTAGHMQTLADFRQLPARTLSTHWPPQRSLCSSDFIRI
The assay can be described thus: ELISA, protein coated.

In assay [6] the target is T6, human HVEM (Sino Biological, Cat #10334-H03H) (human, UniProt Q92956 39-202).
T6 construct: Bought reagent coated on ELISA plates
T6 sequence (looked up): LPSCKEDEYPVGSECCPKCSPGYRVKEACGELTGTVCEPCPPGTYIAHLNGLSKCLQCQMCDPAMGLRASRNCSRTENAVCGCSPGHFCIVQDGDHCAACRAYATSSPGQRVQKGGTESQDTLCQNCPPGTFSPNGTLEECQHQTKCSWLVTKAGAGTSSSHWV
The assay can be described thus: ELISA, protein coated.

In assay [7] the target is T7, human TNFR2, mouse Fc-tag (human).
T7 construct: also called hTNFR2-mFc; huTNFR2-mFc
T7 chain: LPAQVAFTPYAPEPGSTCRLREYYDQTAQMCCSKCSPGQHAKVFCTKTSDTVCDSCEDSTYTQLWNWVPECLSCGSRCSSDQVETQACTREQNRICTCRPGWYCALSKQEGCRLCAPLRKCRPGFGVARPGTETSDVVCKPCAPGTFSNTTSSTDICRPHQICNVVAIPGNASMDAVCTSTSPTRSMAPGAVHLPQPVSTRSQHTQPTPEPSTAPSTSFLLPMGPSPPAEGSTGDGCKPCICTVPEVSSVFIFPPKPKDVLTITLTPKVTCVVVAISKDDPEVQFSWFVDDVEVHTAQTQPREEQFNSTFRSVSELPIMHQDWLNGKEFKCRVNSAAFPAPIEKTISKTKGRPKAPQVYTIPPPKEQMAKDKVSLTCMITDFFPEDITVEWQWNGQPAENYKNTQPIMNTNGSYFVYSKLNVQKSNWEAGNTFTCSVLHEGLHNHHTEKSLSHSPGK
Briefly: ELISA, huTNFR2-mFc coated.

Assay [8] deals with T8, mouse TNFR2 variant 019-12 (human segment 1L-96C) (mouse with a human segment).
T8 construct: Mouse TNFR2 extracellular domain with the human segment, followed by a human Fc
The assay can be described thus: ELISA, TNFR2 variant coated at 0.5 µg/mL.

For assay [9], the target named is T9, His-tagged human TNFR2 (Sino Biological, Cat #10417-H08H) (human, UniProt P20333 23-257).
T9 construct: Bought reagent, analyte in BLI; also called recombinant human TNFR2; not shown: His tag
T9 sequence (looked up): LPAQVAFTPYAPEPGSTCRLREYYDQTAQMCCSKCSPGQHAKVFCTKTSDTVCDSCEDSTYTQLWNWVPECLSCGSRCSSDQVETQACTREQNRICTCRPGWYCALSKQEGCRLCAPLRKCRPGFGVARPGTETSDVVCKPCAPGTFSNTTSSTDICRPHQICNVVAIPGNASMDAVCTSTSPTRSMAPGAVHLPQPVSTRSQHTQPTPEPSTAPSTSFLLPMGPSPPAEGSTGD
Briefly: BLI (Octet RED 96), antibody on Fc capture tips, His-tagged TNFR2 as analyte, 1:1 global fit. In general terms: In BLI a coated tip is dipped into the sample, and binding shifts an interference pattern.

The target of assay [10] is T10, His-tagged cynomolgus monkey TNFR2 (Sino Biological, Cat #90102-C08H) (cynomolgus monkey, UniProt A0A2K5VET2 132-366).
T10 construct: Bought reagent, analyte in BLI; also called Cynomolgus TNFR2; recombinant cynomolgus monkey TNFR2; not shown: His tag
T10 sequence: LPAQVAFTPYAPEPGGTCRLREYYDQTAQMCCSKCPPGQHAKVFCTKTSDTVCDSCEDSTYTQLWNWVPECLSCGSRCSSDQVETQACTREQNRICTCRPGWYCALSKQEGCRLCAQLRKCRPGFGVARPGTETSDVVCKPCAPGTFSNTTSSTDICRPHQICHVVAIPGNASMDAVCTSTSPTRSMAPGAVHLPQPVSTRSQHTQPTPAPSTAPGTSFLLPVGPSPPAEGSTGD
Described as above.

The target in assay [11] is T11, cynomolgus monkey TNFR2 expressed on the cell surface of 293T cells (cynomolgus monkey, UniProt P20333 23-283 (human entry)).
T11 construct: the entry ends shortly after the transmembrane stretch and includes the signal peptide; also called CynoTNFR2; cynomolgus TNFR2 on cell surface
T11 chain: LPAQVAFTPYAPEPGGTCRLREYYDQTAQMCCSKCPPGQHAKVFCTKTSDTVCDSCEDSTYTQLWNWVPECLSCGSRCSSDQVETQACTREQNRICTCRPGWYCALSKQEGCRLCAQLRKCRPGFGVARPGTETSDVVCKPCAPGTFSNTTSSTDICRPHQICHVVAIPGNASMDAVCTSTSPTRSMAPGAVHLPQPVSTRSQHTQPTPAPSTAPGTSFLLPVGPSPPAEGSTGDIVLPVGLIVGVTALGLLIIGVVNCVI
The assay can be described thus: flow cytometry on 293T cells expressing cynomolgus TNFR2; left panel; unit from the axis.

Another assay has as its target TNFR2. Briefly: ELISA on coated TNFR2, positive control of the TNFR superfamily cross-binding test; upper panel.
Assay [12] has as its target T12, human TNFR2 expressed on the cell surface of 293T cells (human, UniProt P20333 23-461).
T12 construct: also called HuTNFR2; human TNFR2 on cell surface
T12 sequence: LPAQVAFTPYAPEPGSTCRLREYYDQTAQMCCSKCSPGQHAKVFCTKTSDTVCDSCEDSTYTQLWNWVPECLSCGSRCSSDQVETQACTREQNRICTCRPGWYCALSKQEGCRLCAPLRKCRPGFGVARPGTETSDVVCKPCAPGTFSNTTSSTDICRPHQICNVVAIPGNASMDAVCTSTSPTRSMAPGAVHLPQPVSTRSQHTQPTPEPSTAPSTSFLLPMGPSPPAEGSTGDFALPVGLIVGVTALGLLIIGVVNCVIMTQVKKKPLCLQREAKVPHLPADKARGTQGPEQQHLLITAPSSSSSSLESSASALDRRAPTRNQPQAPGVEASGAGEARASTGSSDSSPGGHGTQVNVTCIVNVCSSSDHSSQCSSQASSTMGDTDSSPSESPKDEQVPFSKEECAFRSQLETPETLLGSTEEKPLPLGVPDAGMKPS
Briefly: flow cytometry, blocking of Biotin-TNF-alpha binding to human TNFR2 on 293T cells; right panel; unit from the axis.

The target of assay [13] is T7, human TNFR2, mouse Fc-tag. The assay can be described thus: blocking ELISA: hTNFR2-mFc mixed with antibody, binding to coated TNF-alpha his tag; right panel; unit from the axis [a].
For assay [14], the target named is T13, human TNFR2 expressed on activated PBMCs (human, UniProt P20333 23-461).
T13 construct: whole, on cells; Native receptor on primary cells
T13 sequence (looked up): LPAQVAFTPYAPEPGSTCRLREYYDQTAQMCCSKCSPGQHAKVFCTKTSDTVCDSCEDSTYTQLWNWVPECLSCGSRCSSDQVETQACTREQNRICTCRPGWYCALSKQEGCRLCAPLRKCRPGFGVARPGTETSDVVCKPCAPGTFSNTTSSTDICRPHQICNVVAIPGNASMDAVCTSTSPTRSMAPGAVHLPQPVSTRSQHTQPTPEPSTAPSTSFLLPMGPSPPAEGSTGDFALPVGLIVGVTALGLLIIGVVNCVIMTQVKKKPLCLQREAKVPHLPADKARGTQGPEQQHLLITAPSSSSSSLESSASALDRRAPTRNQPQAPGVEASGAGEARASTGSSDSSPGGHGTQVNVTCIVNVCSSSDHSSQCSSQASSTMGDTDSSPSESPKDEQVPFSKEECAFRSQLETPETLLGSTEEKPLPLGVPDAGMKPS
Briefly: flow cytometry on activated human PBMCs. For orientation: In flow cytometry, cells or beads pass a laser one at a time.

Assay [15] has as its target T14, Cynomolgus TNFR2, human Fc tag protein (cynomolgus).
T14 construct: also called cyno-TNFR2-huFc
The assay can be described thus: ELISA on coated cyno-TNFR2-huFc; bottom panel.

Assay [16] deals with T7, human TNFR2, mouse Fc-tag. Briefly: ELISA on coated human TNFR2-mFc, left panel; fit value of a flat control curve; unit from the axis [a].
The target of assay [17] is T7, human TNFR2, mouse Fc-tag. Briefly: ELISA on coated human TNFR2-mFc, left panel; fit value of a flat control curve; unit from the axis [b].
Assay [18] addresses T15, Human TNFR2, human Fc tag protein (human).
T15 construct: also called huTNFR2-huFc; HuTNFR2-huFc
Briefly: ELISA on coated huTNFR2-huFc, top panel (with 32A1D5); fit value of a flat control curve; unit from the axis.

The target of assay [19] is T15, Human TNFR2, human Fc tag protein. The assay can be described thus: ELISA on coated huTNFR2-huFc, middle panel (with 43B7A4); fit value of a flat control curve; unit from the axis.
For assay [20], the target named is T7, human TNFR2, mouse Fc-tag. The assay can be described thus: blocking ELISA: hTNFR2-mFc mixed with antibody, binding to coated TNF-alpha his tag; right panel; fit value of a flat control curve; unit from the axis [a].

A word on the EC50: it is the concentration needed to bring the measured effect to its halfway point. As usually defined, the Kd is the free concentration of one partner at which half of the binding sites on the other are occupied at equilibrium, for simple one-to-one binding. By koff is commonly meant the first-order rate constant of dissociation. As usually defined, the kon is the rate constant with which the complex forms. For orientation: EC50 (read off the curve) means the concentration that produces a half-maximal response. A word on the IC50: it is the point on the concentration scale where inhibition reaches its midpoint.

T2 sequence (P25942 21-193 limits assumed): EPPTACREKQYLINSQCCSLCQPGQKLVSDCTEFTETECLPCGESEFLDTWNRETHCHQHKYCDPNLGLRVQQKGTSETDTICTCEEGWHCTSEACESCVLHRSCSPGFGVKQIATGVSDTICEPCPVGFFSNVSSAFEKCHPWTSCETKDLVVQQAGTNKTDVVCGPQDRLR
T14 sequence (chain, as listed by the source limits assumed): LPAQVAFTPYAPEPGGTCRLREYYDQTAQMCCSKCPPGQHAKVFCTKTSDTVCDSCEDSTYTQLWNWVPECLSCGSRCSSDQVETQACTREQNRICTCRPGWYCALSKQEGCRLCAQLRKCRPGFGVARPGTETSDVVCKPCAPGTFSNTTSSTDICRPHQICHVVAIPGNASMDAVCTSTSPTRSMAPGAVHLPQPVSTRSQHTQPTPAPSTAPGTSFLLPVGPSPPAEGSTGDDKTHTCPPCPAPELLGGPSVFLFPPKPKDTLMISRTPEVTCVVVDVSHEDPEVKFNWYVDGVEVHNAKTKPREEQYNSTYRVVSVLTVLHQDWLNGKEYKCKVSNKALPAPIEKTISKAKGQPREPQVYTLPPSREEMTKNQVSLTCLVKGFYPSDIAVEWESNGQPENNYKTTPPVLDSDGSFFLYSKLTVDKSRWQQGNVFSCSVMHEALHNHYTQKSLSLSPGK

B1: humanized antibody hu32-C (Hu32-H1/Hu32-L3) (antibody, human IgG1, kappa, V domains shown)
VH: QVTLKESGPTLVKPTQTLTLTCTFSGFSLSTLGMGVGWIRQPPGKALEWLAHIWWDADKYYNPALKSRLTITKDTSKNQVVLTMTNMDPVDTATYYCARMTGTRYFDVWGQGTTVTVSS
VL: DIQMTQSPSSLSASVGDRVTITCKASQNINKFIAWYQQKPGKVPKLLIHYTSTLQPGVPSRFSGSGSGSDYTLTISSLQPEDVATYYCLQYGVLWTFGGGTKVEIKR
Turning to B1, the binding result in assay [1], in [2], in assay [3], in assay [4], in [5] and in assay [6] was “no binding (tested: starting concentration 0.4 µg/mL)” each time. In addition, the binding result in assay [8] is on record as “binds”. Moreover, the EC50 turned out to be 0.0697 nM in assay [7] and 0.863 nM in assay [11]. For the same molecule, the Kd in assay [9] stood at 0.606 nM; in assay [10], 0.374 nM. In addition, the results for the koff in [9] and in assay [10] were 0.000168 s⁻¹ and 0.000197 s⁻¹, respectively. Besides, the kon came to 277000 M⁻¹ s⁻¹ in [9] and 528000 M⁻¹ s⁻¹ in [10]. Also, in the assay with TNFR2, the “EC50 (read off the curve)” value is approximately 0.07 nM. Besides, the IC50 in assay [12] was 8.07 nM; in assay [13], 0.433 nM.

B2: negative control IgG (antibody, V domains shown)
VH: QVQLVESGGGAVQPGRSLRLSCAASGFTFSSYGMHWVRQAPGKGLEWVAVILYDGSDKFYADSVKGRFTISRDNSKNTLYLQMNSLRAEDTAVYYCAKVAVAGTHFDYWGQGTLVTVSS
VL: DIQMTQSPSSLSASVGDRVTITCRASQGIRNDLGWYQQKPGKAPKLLIYAASSLQSGVPSRFSGSGSGTDFTLTISSLQPEDFATYYCQQLNSYPPTFGGGTKVEIKR
notes: also called IgG Control; IgG (Negative Control)
As to B2, the figures for the binding result in assay [14] and in assay [15] were “no binding” and “no binding (tested: about 1 nM)”, respectively. Moreover, the EC50 in assay [16] is approximately 0.102 nM; in [17], approximately 3.06 nM; in assay [18], approximately 0.102 nM; in [19], 277 nM. In addition, the IC50 in [20] is approximately 2.06 nM.

Values taken from patent publication US11912777 (NANJING LEADS BIOLABS, dated 2024).
